T1: mouse common cytokine receptor γ-chain (IL-2Rγ) (mouse, UniProt P34902 23-263, limits assumed)
T1 construct: Recombinant mouse IL-2Rγ protein; also called mo IL-2R; mouse IL-2R gamma
T1 sequence (looked up): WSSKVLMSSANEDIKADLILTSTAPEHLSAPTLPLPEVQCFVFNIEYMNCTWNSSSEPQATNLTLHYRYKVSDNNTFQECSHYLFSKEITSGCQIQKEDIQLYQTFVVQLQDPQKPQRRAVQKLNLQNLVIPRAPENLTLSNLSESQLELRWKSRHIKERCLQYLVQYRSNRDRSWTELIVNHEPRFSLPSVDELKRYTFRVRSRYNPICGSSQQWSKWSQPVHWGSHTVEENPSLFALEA

T2: human common cytokine receptor γ-chain (IL-2Rγ) (human, UniProt P31785 23-262, limits assumed)
T2 construct: Recombinant human IL-2Rγ protein, coated (ELISA) or amine-coupled to a CM5 chip (SPR); also called hu IL-2R; CD132
T2 sequence: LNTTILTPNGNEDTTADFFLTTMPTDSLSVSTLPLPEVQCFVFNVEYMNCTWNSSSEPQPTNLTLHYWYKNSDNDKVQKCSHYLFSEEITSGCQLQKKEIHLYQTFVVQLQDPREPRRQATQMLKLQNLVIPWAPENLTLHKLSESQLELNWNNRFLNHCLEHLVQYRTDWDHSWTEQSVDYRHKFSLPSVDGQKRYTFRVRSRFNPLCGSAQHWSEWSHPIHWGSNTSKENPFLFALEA


Tests used:
[1] = biological target: T1, mouse common cytokine receptor γ-chain …; assay: P.E. off-rate SPR
Method in brief: (§1)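 Dissociation rates of nanobody (VHH) periplasmic extracts were measured across a 120s window on an amine-coupled carboxymethyl dextran surface bearing about 2500 RUs of receptor; injection flow 30 uL/min.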

[2] = biological target: T2, human common cytokine receptor γ-chain …; assay: P.E. off-rate SPR
Method in brief: as §1

[3] = biological target: T1, mouse common cytokine receptor γ-chain …; assay: P.E. binding ELISA
Method in brief: (§2)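 Plates were coated overnight at 4° C with human or mouse IL-2R chain protein, and free sites blocked for 1 hour in 4% Marvel in PBS. Periplasmic extracts diluted 1:5 in 1% Marvel/PBS then bound for 1 hour, with specificity assessed from 450 nm absorbance relative to negative controls.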

[4] = biological target: T2, human common cytokine receptor γ-chain …; assay: P.E. binding ELISA
Method in brief: as §2

| koff [1] | koff [2] | PE binding ELISA OD [3] | PE binding ELISA OD [4] | Binder |
| --- | --- | --- | --- | --- |
| 0.108 s⁻¹ | 0.0033 s⁻¹ | 0.045 OD450 nm | 0.428 OD450 nm | FJ1427_P035MP07E09 (VHH, tested as periplasmic extract; also called Clone nr) VHH: QVQLQESGGGLVQAGGSLRLSCAASGRTLSRYAMGWFRQAPGKEREFVTANSWGGDTYYADSVQGRFTFSRDNAKNTVYLQMNSLQPEDTAVYYCAAAPTSFATTAYSSSNSYAYWGQGTQVTVSS |
| 0.107 s⁻¹ | 0.00339 s⁻¹ | 0.046 OD450 nm | 1.25 OD450 nm | FJ1427_P035MP07D03 (VHH, tested as periplasmic extract; also called Clone nr) VHH: QVQLVESGGGLVQAGGSLRLSCAASGRTLSRYAMGWFRQAPGKEREFVTANSWGGDTYYADSVQGRFTFSRDNAKNTVYLQMNSLQPEDTAVYYCAAAPTSFATTAYSSSNSYAYWGQGTQVTVSS |
| 0.11 s⁻¹ | 0.00282 s⁻¹ | 0.045 OD450 nm | 0.439 OD450 nm | FJ1427_P035MP07B05 (VHH, tested as periplasmic extract; also called Clone nr; 610) VHH: QVQLVESGGGLVQAGGSLRLSCAASGRTLSRYAMGWFRQAPGKEREFVTANSWGGDTYYADSVQGRFTFSRDNAKNTVYLQMNSLQPEDTAVYYCAAAPTSFATTAYSSSNSYAYWGQGTQVTVSS |
| 0.099 s⁻¹ | 0.00309 s⁻¹ | 0.048 OD450 nm | 0.495 OD450 nm | FJ1427_P035MP07G03 (VHH, tested as periplasmic extract; also called Clone nr) VHH: QVQLVESGGGLVQAGGSLRLSCAASGRTLSRYAMGWFRQAPGKEREFVTANSWGGDTYYADSVQGRFTFSRDNAKNTVYLQMNSLQPEDTAVYYCAAAPTSFATTAYSSSNSYAYWGQGTQVTVSS |
| 0.1 s⁻¹ | 0.00365 s⁻¹ | 0.051 OD450 nm | 1.22 OD450 nm | FJ1427_P035MP07G02 (VHH, tested as periplasmic extract; also called Clone nr) VHH: QVQLVESGGGLVQAGGSLRLSCAASGRTLSRYAMGWFRQAPGKEREFVTANSWGGDTYYADSVQGRFTFSRDNAKNTVYLQMNSLQPEDTAVYYCAAAPTSFATTAYSSSNSYAYWGQGTQVTVSS |
| 0.0966 s⁻¹ | 0.00311 s⁻¹ | 0.048 OD450 nm | 0.445 OD450 nm | FJ1427_P035MP07E03 (VHH, tested as periplasmic extract; also called Clone nr; 597) VHH: QVQLVESGGGLVQAGGSLRLSCAASGRTLSRYAMGWFRQAPGKEREFVTANSWGGDTYYADSVQGRFTFSRDNAKNTVYLQMNSLQPEDTAVYYCAAAPTSFATTAYSSSNSYAYWGQGTQVTVSS |
| 0.102 s⁻¹ | 0.00272 s⁻¹ | 0.046 OD450 nm | 0.464 OD450 nm | FJ1427_P035MP07E06 (VHH, tested as periplasmic extract; also called Clone nr) VHH: QVQLVESGGGLVQAGGSLRLSCAASGRTLSRYAMGWFRQAPGKEREFVTANSWGGDTYYADSVQGRFTFSRDNAKNTVYLQMNSLQPEDTAVYYCAAAPTSFATTAYSSSNSYAYWGQGTQVTVSS |
| 0.0274 s⁻¹ | 0.00125 s⁻¹ | 0.133 OD450 nm | 0.818 OD450 nm | FJ1427_P035MP07H01 (VHH, tested as periplasmic extract; also called Clone nr) VHH: QVQLVESGGGLVQAGGSLRLFCATSGRTLSRYAMGWFRQAPGREREFVACDSWGGDTFYADSVKGRFTFSRDSAKNTVYLQMNSLQPEDTAVYYCAAAPTSFATTAYSSSNSYAYWGQGTQVTVSS |
| 0.00682 s⁻¹ | 0.00122 s⁻¹ | 0.74 OD450 nm | 0.682 OD450 nm | FJ1427_P035MP07G10 (VHH, tested as periplasmic extract; also called Clone nr; 655) VHH: QVQLVESGGGLVQAGGSLRLSCAASGRTLSRYAMGWFRQAPGKEREYVAIDSWGGDTFYADSVEGRFTFSRDNAKNEVYLQMNSLQPEDTAVYYCAGAPTSFATTAYSSSNSYRYWGQGTQVTVSS |
| 0.0123 s⁻¹ | 0.00188 s⁻¹ | 0.066 OD450 nm | 0.801 OD450 nm | FJ1427_P035MP07H02 (VHH, tested as periplasmic extract; also called Clone nr; 592) VHH: QVQLVESGGGLVQAGGSLRLSCAASGRALSRLAMGWFRQAPGKEREFVVASSWGDDTFYADSVKGRFTFSRDNAKNTVYLQMNSLQPGDTAVYYCAAAPTSFATTAYSSSNSYAYWGQGTQVTVSS |
| 0.191 s⁻¹ | 0.00257 s⁻¹ | 0.046 OD450 nm | 0.45 OD450 nm | FJ1427_P035MP07G05 (VHH, tested as periplasmic extract; also called Clone nr) VHH: QVQLVESGGGLVQAGGSLRLSCAASGRTLSRYAMGWFRQAPGKEREFVAADSWGGDTYYADSVEGRFTFSRDNANNAVYLQMNSLQPEDTAVYYCAAAPTSFATTAYSSSNSYAYWGQGTQVTVSS |
| 0.0823 s⁻¹ | 0.00177 s⁻¹ | 0.052 OD450 nm | 0.593 OD450 nm | FJ1427_P035MP07H04 (VHH, tested as periplasmic extract; also called Clone nr) VHH: QVQLVESGGGLVQAGGSLRLSCAASGRTLSRYAMGWFRQAPGKEREFVAAMSWGGDTFYADSVEGRFTFSRDNAEIAVYLQMNSLQPEDTAVYYCAAAPTSFATTAYSSSNSYAYWGQGTQVTVSH |
| 0.118 s⁻¹ | 0.00279 s⁻¹ | 0.049 OD450 nm | 1.14 OD450 nm | FJ1427_P035MP07H05 (VHH, tested as periplasmic extract; also called Clone nr) VHH: QVQLVESGGGLVQAGGSLRLSCAASGRTLSRYAMGWFRQAPGKEREFVAANSWGGDTYYTDSVEGRFTFSRDNAKNAVYLQMNSLQPGDTAVYYCAAAPTSFATTAYSSSNSYSYWGQGTQVTVSS |
| 0.0137 s⁻¹ | 0.00236 s⁻¹ | 0.049 OD450 nm | 0.572 OD450 nm | FJ1427_P035MP07H10 (VHH, tested as periplasmic extract; also called Clone nr; 656) VHH: EVQLVESGGGLVQAGGSLRLSCAASGRALSRLAMGWFRQAPGKEREFVVASSWGDDTFYADSVKGRFTFSRDNAKNTVYLQMNSLQPGDTAVYYCAAAPTSFATTAYSSSNSYAYWGQGTQVTVSS |
| 0.105 s⁻¹ | 0.003 s⁻¹ | 0.047 OD450 nm | 0.504 OD450 nm | FJ1427_P035MP07G08 (VHH, tested as periplasmic extract; also called Clone nr) VHH: QVQLVESGGGLVQAGGSLRLSCAASGRTLSRYAMGWFRQAPGREREFVTANSWGGDTYYADSVQGRFTFSRDNAKNTVYLQMSSLQPEDTAVYYCAAAPTSFATTAYSSSNSYAYWGQGTQVTVSS |
| 0.00331 s⁻¹ | 0.00418 s⁻¹ | 0.047 OD450 nm | 1.42 OD450 nm | FJ1427_P035MP07H07 (VHH, tested as periplasmic extract; also called Clone nr) VHH: QVQLVESGGGLVQAGDSLRLSCAASGRTLSRYAMGWFRQAPGKEREFVAATSWGGDSYYADSVEGRFTFSRDNAKNAVYLQMNSLQPEDTAVYYCAAAPTSFATTAYSSSNSYANWGQGTQVTVSS |
| 0.133 s⁻¹ | 0.003 s⁻¹ | 0.045 OD450 nm | 0.372 OD450 nm | FJ1427_P035MP07F07 (VHH, tested as periplasmic extract; also called Clone nr; 630) VHH: EVQLVESGGGLVQAGGSLRLSCAASGRTLSRYAMGWFRQAPGKEREFVTANSWGGDTYYADSVQGRFTFSRDNAKNTVYLQMNSLQPEDTAVYYCAAAPTSFATTAYSSSNSYAYWGQGTQVTVSS |
| 0.112 s⁻¹ | 0.00281 s⁻¹ | 0.047 OD450 nm | 1.02 OD450 nm | FJ1427_P035MP07G04 (VHH, tested as periplasmic extract; also called Clone nr) VHH: EVQLVESGGGLVQAGGSLRLSCAASGRTLSRYAMGWFRQAPGKEREFVTANSWGGDTYYADSVQGRFTFSRDNAKNTVYLQMNSLQPEDTAVYYCAAAPTSFATTAYSSSNSYAYWGQGTQVTVSS |
| 0.115 s⁻¹ | 0.00296 s⁻¹ | 0.047 OD450 nm | 0.4 OD450 nm | FJ1427_P035MP07F04 (VHH, tested as periplasmic extract; also called Clone nr; 606) VHH: EVQLVESGGGLVQAGGSLRLSCAASGRTLSRYAMGWFRQAPGKEREFVTANSWGGDTYYADSVQGRFTFSRDNAKNTVYLQMNSLQPEDTAVYYCAAAPTSFATTAYSSSNSYAYWGQGTQVTVSS |
| 0.0117 s⁻¹ | 0.00162 s⁻¹ | 0.082 OD450 nm | 1.34 OD450 nm | FJ1427_P035MP07F06 (VHH, tested as periplasmic extract; also called Clone nr) VHH: QVQLVESGGGLVQAGGSLRLSCAASGRALSRLAMGWFRQAPGKEREFVVASSWGDDTFYADSVKGRFTFSRDNAKNTVYLQMNSLQPGDTAVYYCAAAPTSFATTAYSSSNSYAYWGQGTQVTVSS |
| 0.0121 s⁻¹ | 0.00199 s⁻¹ | 0.089 OD450 nm | 0.67 OD450 nm | FJ1427_P035MP07F10 (VHH, tested as periplasmic extract; also called Clone nr; 654) VHH: QVQLQESGGGLVQAGGSLRLSCAASGRTLSRYAMGWFRQAPGKEREFVACDSWGGDTFYADSVEGRFTFSRDNAKNATYLQMNSLQPEDTAVYYCAGAPTSFATTAYSSSNSYTVWGQGTQVTVSL |
| 0.116 s⁻¹ | 0.00323 s⁻¹ | 0.045 OD450 nm | 0.405 OD450 nm | FJ1427_P035MP07F05 (VHH, tested as periplasmic extract; also called Clone nr) VHH: EVQLVESGGGLVQAGGSLRLSCAASGRTLSRYAMGWFRQAPGREREFVTANSWGGDTYYADSVQGRFTFSRDNAKNTVYLQMNSLQPEDTAVYYCAAAPTSFATTAYSSSNSYAYWGQGTQVTVSS |

Reference: patent US20240409645A1 (DUALYX, published 2024)
